Changes are numbered by the printed parent chain. Names may count otherwise.

Substrate in data set [1]: OC[C@@H](O)[C@H](O)[C@@H](O)CO
The data set can be described thus: purified protein. The conditions noted are these: 1.5 mM NAD+, 50 mM Tris-HCl pH 8.0, 30 °C.

Data set [2] concerns the molecule itself. Nature of the data set: SEC; gel filtration of the sample purified by Ni-NTA (HiLoad 16/600 Superdex 200 pg, 20 mM Tris-HCl pH 8.0, 150 mM NaCl). (In general: Size exclusion chromatography separates by hydrodynamic size, large species first.)
Data set [3] concerns the molecule itself. Nature of the data set: SEC; analytical size-exclusion chromatography of PsXDHC4 in solution.
Substrate in data set [4]: OC[C@@H](O)[C@H](O)[C@@H](O)CO
The data set can be described thus: purified protein. The note with it: […] NAD+, 50 mM Tris-HCl pH 8.0, 30 °C. Format: biochemical, Scheffersomyces stipitis.

B1: ScXDH (Saccharomyces cerevisiae S288C) (protein)
chain: MTDLTTQEAIVLERPGKITLTNVSIPKISDPNEVIIQIKATGICGSDIHYYTHGRIANYVVESPMVLGHESSGIVALIGENVKTLKVGDRVALEPGIPDRFSPEMKEGRYNLDPNLKFAATPPFDGTLTKYYKTMKDFVYKLPDDVSFEEGALIEPLSVAIHANKLAKIKFGARCVVFGAGPIGLLAGKVASVFGAADVVFVDLLENKLETARQFGATHIVNSGDLPHGVTVDSVIKKAIGKKGADVVFECSGAEPCVRAGIEVCKAGGTIVQVGMGQEEIQFPISIIPTKELTFQGCFRYCQGDYSDSIELVSSRKLSLKPFITHRYSFKDAVEAFEETSHHPLNNIKTIIEGPE
Turning to B1, in data set [1] (0.1-1 mM xylitol), the Km is reported as 1.82 ± 0.42 mM, the kcat is 0.0182 s⁻¹ and the kcat/Km worked out at 10.1 M⁻¹ s⁻¹.

B2: ScXDH (Saccharomyces cerevisiae S288C; D113C/D99C/M105C/S102C) (protein)
chain: B1 chain with D99C, S102C, M105C, D113C
Consider B2, for which, in data set [1] (0.1-1 mM xylitol), the Km came out at 5.44 ± 0.78 mM, the kcat is 0.402 s⁻¹ and the kcat/Km is 74 M⁻¹ s⁻¹.

B3: SpXDH C97S mutant (enzyme, Schizosaccharomyces pombe, UniProt P36624 1-360, looked up)
chain: MAPAEKAFVLRKKMDTAIEDRPGQTLTDDHQVKVAIKATGICGSDVHYWKEGGIGDFILKKPMILGHESAGVVVEVGKGVSSLKPGDPVAVEPGCVSRLCDYCRSGRYNLCPHMEFAATPPYDGTLRTYYITTEDFCTKLPKQISVEEGALFEPMSVAVHAMTRGNLKCGSRVLVMGCGTVGLLMMAVAKAYGAIDIVAVDASPSRVEFAQKYVGAKPFTPIAAKENESLPDYAQRYKQAIIEKYGEFDFAVDATGVGICIHTAVLALKRGGTFVQAGNGKPVIDFPINHIINYEINVLGSFRYAHGCYKQSLFLVSNGLVDVKPLITHRFAFKDALKAYETVASGEEGVLKVIIGGPDA
notes: SPBC1773.05c protein of S. pombe (SpXDH), cloned into pQE-81L; source: E. coli DH5α, purified (Ni-NTA)
Take B3: in data set [1] (1-10 mM xylitol), the Km came out at 12.3 ± 2.3 mM, the kcat worked out at 6.03 s⁻¹ and the kcat/Km is 493 M⁻¹ s⁻¹. In addition, the “stoichiometry N” value in data set [2] was found to be 4.

B4: SpXDH wild type (xylitol dehydrogenase, SPBC1773.05c protein from Schizosaccharomyces pombe) (enzyme, UniProt P36624 1-360, looked up)
chain: B3 chain with S97C
notes: cloned into pQE-81L; also called SpXDHWT; WT; source: E. coli DH5α, purified (Ni-NTA)
For the protein B4, in data set [1] (1-10 mM xylitol), the Km is on record as 6.10 ± 0.34 mM, the kcat is 6.95 s⁻¹ and the kcat/Km amounted to 1140 M⁻¹ s⁻¹. Further, the “stoichiometry N” value in data set [2] is 4.

B5: SpXDH (Schizosaccharomyces pombe 972h-; C100D) (protein)
chain: B3 chain with S97C, C100D
In the case of B5, in data set [1] (1-10 mM xylitol), the Michaelis-Menten constant (Km) was found to be 8.26 ± 0.89 mM, the kcat stood at 2.17 s⁻¹ and the kcat/Km was found to be 263 M⁻¹ s⁻¹.

B6: SpXDH C97D mutant (enzyme, Schizosaccharomyces pombe, UniProt P36624 1-360, looked up)
chain: B3 chain with S97D
notes: as for B3
For B6, in data set [1] (1-10 mM xylitol), the Km stood at 10.4 ± 0.1 mM, the kcat came to 6.78 s⁻¹ and the kcat/Km turned out to be 650 M⁻¹ s⁻¹. In data set [2], the “stoichiometry N” value is 4.

B7: SpXDH C100S mutant (enzyme, Schizosaccharomyces pombe, UniProt P36624 1-360, looked up)
chain: B3 chain with S97C, C100S
notes: as for B3
With B7, in data set [1] (1-10 mM xylitol), the Km was found to be 16.2 ± 5.0 mM, the kcat was 0.202 s⁻¹ and the kcat/Km turned out to be 12.4 M⁻¹ s⁻¹. Also, the “stoichiometry N” value in data set [2] stood at 4.

B8: SpXDH C103S mutant (enzyme, Schizosaccharomyces pombe, UniProt P36624 1-360, looked up)
chain: B3 chain with S97C, C103S
notes: as for B3
In the case of B8, in data set [1] (xylitol range not marked), the Km was determined as 9.01 ± 0.74 mM, the kcat came to 2.08 s⁻¹ and the specificity constant (kcat/Km) came out at 233 M⁻¹ s⁻¹. The “stoichiometry N” value in data set [2] came out at 4.

B9: SpXDH C103D mutant (enzyme, Schizosaccharomyces pombe, UniProt P36624 1-360, looked up)
chain: B3 chain with S97C, C103D
notes: as for B3
On to B9, for which, in data set [1] (1-10 mM xylitol), the Km was 10.5 ± 0.7 mM, the kcat turned out to be 7.82 s⁻¹ and the kcat/Km came out at 743 M⁻¹ s⁻¹. Moreover, in data set [2], the “stoichiometry N” value turned out to be 4.

B10: SpXDH (Schizosaccharomyces pombe 972h-; C111D) (protein)
chain: B3 chain with S97C, C111D
With B10, in data set [1] (1-10 mM xylitol), the Km is recorded as 9.76 ± 0.15 mM, the kcat was determined as 3.6 s⁻¹ and the kcat/Km turned out to be 368 M⁻¹ s⁻¹.

B11: SpXDH C111S mutant (enzyme, Schizosaccharomyces pombe, UniProt P36624 1-360, looked up)
chain: B3 chain with S97C, C111S
notes: as for B3
Turning to B11, in data set [2], the “stoichiometry N” value is 4.

B12: PsXDHC4 mutant (xylitol dehydrogenase from Pichia stipitis, S96C/S99C/Y102C) (enzyme)
chain: TANPSLVLNKIDDISFETYDAPEISEPTDVLVQVKKTGICGSDIHFYAHGRIGNFVLTKPMVLGHESAGTVVQVGKGVTSLKVGDNVAIEPGIPCRFCDECKSGHYNLCPHMAFAATPNSKEGEPNPPGTLCKYFKSPEDFLVKLPDHVSLELGALVEPLSVGVHASKLGSVAFGDYVAVFGAGPVGLLAAAVAKTFGAKGVIVVDIFDNKLKMAKDIGAATHTFNSKTGGSEELIKAFGGNVPNVVLECTGAEPCIKLGVDAIAPGGRFVQVGNAAGPVSFPITVFAMKELTLFGSFRYGFNDYKTAVGIFDTNYQNGRENAPIDFEQLITHRYKFKDAIEAYDLVRAGKGAVKCLIDGPE
notes: xylitol dehydrogenase (XDH) of Pichia stipitis (Scheffersomyces stipitis), encoded by the PICST_86924 gene, cloned into pQE-81L; the model holds Thr2-Pro362 (Ser121-Gly124 not built); source: E. coli DH5α, purified (Ni-NTA, Superdex 200)
Turning to B12, the “stoichiometry N” value in data set [3] was determined as 4.

B13: PsXDH (Scheffersomyces stipitis CBS 6054) (protein)
chain: MTANPSLVLNKIDDISFETYDAPEISEPTDVLVQVKKTGICGSDIHFYAHGRIGNFVLTKPMVLGHESAGTVVQVGKGVTSLKVGDNVAIEPGIPSRFSDEYKSGHYNLCPHMAFAATPNSKEGEPNPPGTLCKYFKSPEDFLVKLPDHVSLELGALVEPLSVGVHASKLGSVAFGDYVAVFGAGPVGLLAAAVAKTFGAKGVIVVDIFDNKLKMAKDIGAATHTFNSKTGGSEELIKAFGGNVPNVVLECTGAEPCIKLGVDAIAPGGRFVQVGNAAGPVSFPITVFAMKELTLFGSFRYGFNDYKTAVGIFDTNYQNGRENAPIDFEQLITHRYKFKDAIEAYDLVRAGKGAVKCLIDGPE
notes: full length, N-terminal His6 tag (pQE-81L), E. coli DH5alpha; homotetramer; 7Y9P is the apo C4 mutant
For the protein B13, in data set [4] (0.1-1 mM xylitol), the Km was determined as 2.05 ± 0.20 mM, the kcat was 0.63 ± 0.0583 s⁻¹ and the kcat/Km was found to be 307 ± 3.33 M⁻¹ s⁻¹.

B14: PsXDH (Scheffersomyces stipitis CBS 6054; S96C/S99C/Y102C) (protein)
chain: B13 chain with S96C, S99C, Y102C
notes: as for B13
Turning to B14, in data set [4] (0.1-1 mM xylitol), the Km worked out at 4.94 ± 1.62 mM, the kcat was found to be 6.4 ± 1.85 s⁻¹ and the kcat/Km turned out to be 1320 ± 66.7 M⁻¹ s⁻¹.

B15: PsXDH (Scheffersomyces stipitis CBS 6054; S96D/S99C/Y102C) (protein)
chain: B13 chain with S96D, S99C, Y102C
notes: as for B13
In the case of B15, in data set [4] (1-10 mM xylitol), the Km stood at 11.0 ± 1.2 mM, the kcat was 9.17 ± 0.633 s⁻¹ and the kcat/Km came out at 837 ± 28.3 M⁻¹ s⁻¹.

As usually defined, the Km is the substrate concentration at which the rate is half of its maximum. Usually kcat stands for the maximal rate divided by the concentration of active sites. What is called kcat/Km is the second-order rate constant that governs catalysis at low substrate concentration. Broadly, the stoichiometry N is a count of units in the complex or per binding partner.

Values taken from PMC9895041, “Molecular evolutionary insight of structural zinc atom in yeast xylitol dehydrogenases and its application in bioethanol production by lignocellulosic biomass” (Scientific Reports, 2023).
